The values below come from paper PMC7260205, “Steric occlusion regulates proximal interactions of acyl carrier protein domain in fungal fatty acid synthase” (Communications Biology, 2020).

The data set deals with the molecule itself. The data set can be described thus: cryo-EM structure; FAS1-His6 and FAS2 co-expressed and purified as one complex; 1-2 mg/ml in TBS (50 mM Tris pH 7.4, 150 mM NaCl) on holey gold grids; WT apo or with acetyl-CoA, malonyl-CoA and NADPH; mutants with substrates; D3 symmetrised maps; for H1564A and H740A also symmetry expansion, signal subtraction and focused classification.

B1: S. cerevisiae fatty acid synthase FAS2 polypeptide (α-chain), wild type (enzyme)
chain: MKPEVEQELAHILLTELLAYQFASPVRWIETQDVFLKDFNTERVVEIGPSPTLAGMAQRTLKNKYESYDAALSLHREILCYSKDAKEIYYTPDPSELAAKEEPAKEEAPAPTPAASAPAPAAAAPAPVAAAAPAAAAAEIADEPVKASLLLHVLVAHKLKKSLDSIPMSKTIKDLVGGKSTVQNEILGDLGKEFGTTPEKPEETPLEELAETFQDTFSGALGKQSSSLLSRLISSKMPGGFTITVARKYLQTRWGLPSGRQDGVLLVALSNEPAARLGSEADAKAFLDSMAQKYASIVGVDLSSAASASGAAGAGAAAGAAMIDAGALEEITKDHKVLARQQLQVLARYLKMDLDNGERKFLKEKDTVAELQAQLDYLNAELGEFFVNGVATSFSRKKARTFDSSWNWAKQSLLSLYFEIIHGVLKNVDREVVSEAINIMNRSNDALIKFMEYHISNTDETKGENYQLVKTLGEQLIENCKQVLDVDPVYKDVAKPTGPKTAIDKNGNITYSEEPREKVRKLSQYVQEMALGGPITKESQPTIEEDLTRVYKAISAQADKQDISSSTRVEFEKLYSDLMKFLESSKEIDPSQTTQLAGMDVEDALDKDSTKEVASLPNKSTISKTVSSTIPRETIPFLHLRKKTPAGDWKYDRQLSSLFLDGLEKAAFNGVTFKDKYVLITGAGKGSIGAEVLQGLLQGGAKVVVTTSRFSKQVTDYYQSIYAKYGAKGSTLIVVPFNQGSKQDVEALIEFIYDTEKNGGLGWDLDAIIPFAAIPEQGIELEHIDSKSEFAHRIMLTNILRMMGCVKKQKSARGIETRPAQVILPMSPNHGTFGGDGMYSESKLSLETLFNRWHSESWANQLTVCGAIIGWTRGTGLMSANNIIAEGIEKMGVRTFSQKEMAFNLLGLLTPEVVELCQKSPVMADLNGGLQFVPELKEFTAKLRKELVETSEVRKAVSIETALEHKVVNGNSADAAYAQVEIQPRANIQLDFPELKPYKQVKQIAPAELEGLLDLERVIVVTGFAEVGPWGSARTRWEMEAFGEFSLEGCVEMAWIMGFISYHNGNLKGRPYTGWVDSKTKEPVDDKDVKAKYETSILEHSGIRLIEPELFNGYNPEKKEMIQEVIVEEDLEPFEASKETAEQFKHQHGDKVDIFEIPETGEYSVKLLKGATLYIPKALRFDRLVAGQIPTGWNAKTYGISDDIISQVDPITLFVLVSVVEAFIASGITDPYEMYKYVHVSEVGNCSGSGMGGVSALRGMFKDRFKDEPVQNDILQESFINTMSAWVNMLLISSSGPIKTPVGACATSVESVDIGVETILSGKARICIVGGYDDFQEEGSFEFGNMKATSNTLEEFEHGRTPAEMSRPATTTRNGFMEAQGAGIQIIMQADLALKMGVPIYGIVAMAATATDKIGRSVPAPGKGILTTAREHHSSVKYASPNLNMKYRKRQLVTREAQIKDWVENELEALKLEAEEIPSEDQNEFLLERTREIHNEAESQLRAAQQQWGNDFYKRDPRIAPLRGALATYGLTIDDLGVASFHGTSTKANDKNESATINEMMKHLGRSEGNPVIGVFQKFLTGHPKGAAGAWMMNGALQILNSGIIPGNRNADNVDKILEQFEYVLYPSKTLKTDGVRAVSITSFGFGQKGGQAIVVHPDYLYGAITEDRYNEYVAKVSAREKSAYKFFHNGMIYNKLFVSKEHAPYTDELEEDVYLDPLARVSKDKKSGSLTFNSKNIQSKDSYINANTIETAKMIENMTKEKVSNGGVGVDVELITSINVENDTFIERNFTPQEIEYCSAQPSVQSSFAGTWSAKEAVFKSLGVKSLGGGAALKDIEIVRVNKNAPAVELHGNAKKAAEEAGVTDVKVSISHDDLQAVAVAVSTKK
notes: Fatty acid synthase subunit alpha (FAS2 gene product), S. cerevisiae strain BJ2168, gene amplified from genomic DNA into NcoI-digested pET-15b(+); holds the ACP domain (residues 140-302), KR and KS domains; Serine 180 of the ACP domain is called the phosphopantetheine attachment site; No tag is named for FAS2; also called JWL03; holds the ACP domain; source: E. coli BL21, co-expressed with …
As for B1, the binding result is reported as “binds”.
